Assay results: publication PMC4651853 (DNA repair, 2015)
“And” between values parts separate entries of the source, which are not always exact repeats. Equal values may be shown once.

B1: MutS (natural protein, E. coli, UniProt P23909 1-853, looked up)
chain: MSAIENFDAHTPMMQQYLRLKAQHPEILLFYRMGDFYELFYDDAKRASQLLDISLTKRGASAGEPIPMAGIPYHAVENYLAKLVNQGESVAICEQIGDPATSKGPVERKVVRIVTPGTISDEALLQERQDNLLAAIWQDSKGFGYATLDISSGRFRLSEPADRETMAAELQRTNPAELLYAEDFAEMSLIEGRRGLRRRPLWEFEIDTARQQLNLQFGTRDLVGFGVENAPRGLCAAGCLLQYAKDTQRTTLPHIRSITMEREQDSIIMDAATRRNLEITQNLAGGAENTLASVLDCTVTPMGSRMLKRWLHMPVRDTRVLLERQQTIGALQDFTAGLQPVLRQVGDLERILARLALRTARPRDLARMRHAFQQLPELRAQLETVDSAPVQALREKMGEFAELRDLLERAIIDTPPVLVRDGGVIASGYNEELDEWRALADGATDYLERLEVRERERTGLDTLKVGFNAVHGYYIQISRGQSHLAPINYMRRQTLKNAERYIIPELKEYEDKVLTSKGKALALEKQLYEELFDLLLPHLEALQQSASALAELDVLVNLAERAYTLNYTCPTFIDKPGIRITEGRHPVVEQVLNEPFIANPLNLSPQRRMLIITGPNMGGKSTYMRQTALIALMAYIGSYVPAQKVEIGPIDRIFTRVGAADDLASGRSTFMVEMTETANILHNATEYSLVLMDEIGRGTSTYDGLSLAWACAENLANKIKALTLFATHYFELTQLPEKMEGVANVHLDALEHGDTIAFMHSVQDGAASKSYGLAVAALAGVPKEVIKRARQKLRELESISPNAAATQVDGTQMSLLSVPEETSPAVEALENLDPDSLTPRQALEWIYRLKSLV

Assays:
[1] = biological target: the molecule itself; experiment: atomic force microscopy
[2] = biological target: B1; experiment: atomic force microscopy

Binder	stoichiometry N [1]	binding result [2]
B1	2 and 4	
his-MutL (natural protein, E. coli, UniProt P23367 1-615, looked up) MPIQVLPPQLANQIAAGEVVERPASVVKELVENSLDAGATRIDIDIERGGAKLIRIRDNGCGIKKDELALALARHATSKIASLDDLEAIISLGFRGEALASISSVSRLTLTSRTAEQQEAWQAYAEGRDMNVTVKPAAHPVGTTLEVLDLFYNTPARRKFLRTEKTEFNHIDEIIRRIALARFDVTINLSHNGKIVRQYRAVPEGGQKERRLGAICGTAFLEQALAIEWQHGDLTLRGWVADPNHTTPALAEIQYCYVNGRMMRDRLINHAIRQACEDKLGADQQPAFVLYLEIDPHQVDVNVHPAKHEVRFHQSRLVHDFIYQGVLSVLQQQLETPLPLDDEPQPAPRSIPENRVAAGRNHFAEPAAREPVAPRYTPAPASGSRPAAPWPNAQPGYQKQQGEVYRQLLQTPAPMQKLKAPEPQEPALAANSQSFGRVLTIVHSDCALLERDGNISLLSLPVAERWLRQAQLTPGEAPVCAQPLLIPLRLKVSAEEKSALEKAQSALAELGIDFQSDAQHVTIRAVPLPLRQQNLQILIPELIGYLAKQSVFEPGNIAQWIARNLMSEHAQWSMAQAITLLADVERLCPQLVKTPPGGLLQSVDLHPAIKALKDE		binds
